From patent US20110081661A1, “Modified photoproteins with increased affinity for calcium and enhanced bioluminescence and uses thereof” (Millipore Corporation, priority 2009, published 2011)
Changes are numbered by the printed parent chain. Names may count otherwise.

T1: GIP Receptor (Homo sapiens, UniProt P48546)
T1 construct: host or cells: HEK293T
T1 sequence (P48546 22-466): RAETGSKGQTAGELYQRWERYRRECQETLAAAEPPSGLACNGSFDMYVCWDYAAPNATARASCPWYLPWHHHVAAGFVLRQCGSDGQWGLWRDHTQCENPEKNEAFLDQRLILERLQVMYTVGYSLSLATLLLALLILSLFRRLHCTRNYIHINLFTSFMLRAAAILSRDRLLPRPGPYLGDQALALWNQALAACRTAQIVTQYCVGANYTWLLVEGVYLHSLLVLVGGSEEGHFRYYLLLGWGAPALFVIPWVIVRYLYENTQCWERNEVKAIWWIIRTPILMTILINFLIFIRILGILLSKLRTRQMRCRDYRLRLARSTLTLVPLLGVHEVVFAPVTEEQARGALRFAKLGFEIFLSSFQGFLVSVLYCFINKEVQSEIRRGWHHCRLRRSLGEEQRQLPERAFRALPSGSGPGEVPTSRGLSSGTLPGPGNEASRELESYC

B1: Mt-clytin K168D: Mitochondrial K168D modified Clytin, SEQ ID NO:10 (protein)
chain: MSVLTPLLLRGLTGSARRLPVPRAKIHSLPPEGKLRPNFDNPKWVNRHKFMFNFLDINGDGKITLDEIVSKASDDICAKLGATPEQTKRHQDAVEAFFKKIGMDYGKEVEFPAFVDGWKELANYDLKLWSQNKKSLIRDWGEAVFDIFDKDGSGSISLDEWKAYGRISGICSSDEDAEKTFKHCDLDNSGDLDVDEMTRQHLGFWYTLDPNADGLYGNFVP
B2: Mt-aequorin: Mitochondrial Wild-type Aequorin (mt-Aequorin), SEQ ID NO:6 (protein, listed as Aequorea victoria)
chain: MSVLTPLLLRGLTGSARRLPVPRAKIHSLPPEGKLTSDFDNPRWIGRHKHMFNFLDVNHNGKISLDEMVYKASDIVINNLGATPEQAKRHKDAVEAFFGGAGMKYGVETDWPAYIEGWKKLATDELEKYAKNEPTLIRIWGDALFDIVDKDQNGAITLDEWKAYTKAAGIIQSSEDCEETFRVCDIDESGQLDVDEMTRQHLGFWYTMDPACEKLYGGAVP
B3: Mt-clytin wt: Mitochondrial Wild-type Clytin (mt-Clytin), SEQ ID NO:5, with COX8 mitochondrial leader sequence (protein, listed as Clytia gregaria)
chain: B1 chain with D191K
B4: Mt-clytin K168E: Mitochondrial K168E modified Clytin, SEQ ID NO:12 (protein)
chain: B1 chain with D191E
B5: Cyto-clytin K168D: K168D modified Clytin amino acid sequence, SEQ ID NO:9; cytosolic (protein)
chain: MADTASKYAVKLRPNFDNPKWVNRHKFMFNFLDINGDGKITLDEIVSKASDDICAKLGATPEQTKRHQDAVEAFFKKIGMDYGKEVEFPAFVDGWKELANYDLKLWSQNKKSLIRDWGEAVFDIFDKDGSGSISLDEWKAYGRISGICSSDEDAEKTFKHCDLDNSGDLDVDEMTRQHLGFWYTLDPNADGLYGNFVP

What was measured:
Format in all cases: cell-based
[1] = Calcium affinity of mitochondrial photoproteins, transient co-transfection with H1 histamine receptor in HEK293T cells (FIG. 2); conditions: HEK293T cells co-transfected with H1 histamine receptor; Triton X-100, free calcium 17 nM to 39.6 μM; total bioluminescence at 20 seconds; read-out: EC50 value (affinity for Ca^2+)
Excerpt: (§1) Following the generation of modified forms of Clytin, the various variants were compared with wt-Aequorin for their affinity for intracellular calcium in transient transfection assays using co-transfection with the H1 histamine receptor (Genbank Accession No. NM_000861, obtained by PCR using H1-specific primers from a human brain cDNA library, forward primer 5′-[…] ATTCCTC-3′ (SEQ ID NO:60), reverse primer 5′-[…] AATTCTC-3′ (SEQ ID NO:61).
(§2) In an exemplary experiment, HEK293T cells (ATCC-CRL-11268) were transiently co-transfected with 2 μgs of each of pcDNA3.1-H1 (containing the cDNA encoding the H1 histamine receptor) and pcDNA3.1 containing the cDNAs encoding wild type mitochondrial Clytin (referred to as mt-Clytin), modified mitochondrial Clytin having a lysine to aspartic acid mutation at position 168 (referred to as mt-Clytin K168D), modified mitochondrial Clytin having a lysine to glutamic acid mutation at position 168 (referred to as mt-Clytin K168E), wild-type mitochondrial Obelin (referred to as mt-Obelin) or wild type mitochondrial Aequorin (referred to as mt-Aequorin) using the Targefect-293 reagent (TARGETING SYSTEMS). 48 hours later, the cells were detached using Accutase (MILLIPORE), centrifuged, and resuspended in […] in FreeStyle293 media (INVITROGEN), for incubation for 3-4 hours at room temperature in the dark. After incubation, the cells were centrifuged and resuspended in HBSS/HEPES buffer without Ca^2+ at a density of 1×10^6 cells/ml. Next, 100 μl/well of cell suspension for each transfection were added by the use of a Victor2 luminometer plate reader (WALLAC, […]), to a 96-well plate containing 50 μL/well Triton X-100 in MOPS/KCl buffer containing 10 mM EGTA and a series of Ca^2+ concentrations, such that free calcium concentrations ranged from 17 nM to 39.6 μM, followed by for measurement of total bioluminescence at 20 seconds.

[2] = molecular target: T1, GIP Receptor; test: GIP receptor-mediated bioluminescence in HEK293T cells with chimeric promiscuous G protein (FIG. 5, Table II); conditions: for signal intensities, GIP dose response (FIG. 5) / Max signal with GIP (RLU × 10^−5) / EC50 / EC50 for GIP (nM): HEK293T cells; for signal intensities, GIP dose response (FIG. 5): GIP 10^−11 to 10^−6 M; for Max signal with GIP (RLU × 10^−5) / EC50 / EC50 for GIP (nM): GIP Receptor + promiscuous G protein; for EC50 / EC50 for GIP (nM): luminescence vs GIP concentration; for % GPCR/total: signal induced by maximal GIP (1 μM) as percentage of signal induced by Triton X-100 with 1 mM Ca^2+; for Signal: background with GIP: signal induced by maximal GIP (1 μM) divided by signal induced by buffer alone
Description: However, coexpression of GIP receptor with a chimeric G protein containing sequences from Gαs and Gαq enable the GIP receptor to stimulate calcium flux.
The results of the dose response curve to varying concentrations of GIP with a subset of the photoproteins are summarized in FIG. 5.
(§3) Signal to background ratio was calculated as the signal induced by maximal GIP (1 μM) divided by the signal induced by buffer alone. The EC50 value for calcium was determined as described above for FIG. 2 for mitochondrially targeted photoproteins transfected into HEK293T cells in the absence of a cotransfected GPCR or G protein. Affinity for calcium was correlated with the properties of the amino acid side chain at residue 168 of Clytin.
The EC50 value for receptor-mediated calcium flux induced by the ligand was determined by plotting luminescence (Y-axis) versus ligand concentration applied to the cells (X-axis), and applying a sigmoidal dose-response curve-fitting algorithm (GraphPad Prism). GPCR-mediated signals of the various modified forms of Clytin having an amino acid substitution at position 168 were also related to the nature of the side chain. In addition, the subcellular location of the photoproteins (cytosolic vs mitochondrial) appeared to have an effect on GPCR-mediated signals. […] All of the other mitochondrially targeted mutants except for Clytin K168R and wild-type Clytin yielded results that were in the range of those observed for wt-Aequorin.

[3] = Calcium EC50 of mitochondrially targeted photoproteins in HEK293T cells without cotransfected GPCR or G protein (Table II); conditions: no cotransfected GPCR or G protein
Excerpt: as §2, §3

[4] = molecular target: T2, H1 histamine receptor (Homo sapiens, UniProt P35367); test: GPCR-mediated versus total bioluminescence in U-2OS cells (FIG. 4); conditions: 10 μM histamine vs Triton X-100 with 1 mM calcium
T2 construct: expressed in transfected cells; host or cells: U-2OS
Description: In another experiment, the ability of the various photoproteins to detect calcium flux in live cells was assessed by adding varying concentrations of histamine to cells in order to activate the H1 histamine receptor followed by measurement of bioluminescence of the various photoproteins. U-2OS cells were transfected with a cDNA encoding H1 histamine receptor along with a cDNA encoding either a wild-type photoprotein or a modified photoprotein according to the invention, as described above in Example 2, except that Lipofectamine-2000 (INVITROGEN) was used as the transfection reagent. On the second day, the cells were trypsinized, counted, and plated in a white tissue-culture treated 96-well plate (COSTAR) at a density of about 50,000 cells/well in growth media consisting of DMEM containing 10% fetal bovine serum, non-essential amino acids, HEPES and penicillin/streptomycin. On the third day, the medium was removed and cells were washed once with 200 μl/well of HBSS/HEPES (containing Ca^2+). Cells were subsequently incubated with 5 μM coelenterazine in HBSS/HEPES (containing Ca^2+) in a volume of 200 μl/well, for 3-4 hours at room temperature in the dark. After incubation, the coelenterazine solution was removed and cells were washed and replaced with HBSS/HEPES buffer containing both Ca^2+ and Mg^2+. 50 μl/well of histamine at varying concentrations in HBSS/HEPES containing both Ca^2+ and Mg^2+ was added to the cells and total bioluminescence was measured at 20 seconds using a Victor2 luminometer.
In an exemplary experiment, U-2OS cells were transfected, plated and loaded with coelenterazine as described in Example 3. Luminescence induced by buffer alone or by 10 μM histamine was measured also as described in Example 3. Additionally, luminescence induced by addition of Triton X-100 in the presence of 1 mM calcium was also determined in order to assess the total amount of active photoprotein detectable using saturating calcium concentrations in cells.

[5] = molecular target: T2, H1 histamine receptor; test: H1 histamine receptor-mediated bioluminescence in U-2OS cells (FIG. 3); conditions: total bioluminescence at 20 seconds
Excerpt: as §1
In another experiment, the ability of the various photoproteins to detect calcium flux in live cells was assessed by adding varying concentrations of histamine to cells in order to activate the H1 histamine receptor followed by measurement of bioluminescence of the various photoproteins. […] On the second day, the cells were trypsinized, counted, and plated in a white tissue-culture treated 96-well plate (COSTAR) at a density of about 50,000 cells/well in growth media consisting of DMEM containing 10% fetal bovine serum, non-essential amino acids, HEPES and penicillin/streptomycin. […] 50 μl/well of histamine at varying concentrations in HBSS/HEPES containing both Ca^2+ and Mg^2+ was added to the cells and total bioluminescence was measured at 20 seconds using a Victor2 luminometer.

[6] = molecular target: T3, TRPA1 cation channel (Homo sapiens, UniProt O75762); test: Ion channel-mediated bioluminescence in HEK293 cells stably expressing TRPA1, induced by AITC; conditions: HEK293 cells stably expressing TRPA1, AITC 10^−6 to 10^−3.5 M
T3 construct: host or cells: HEK293

[7] = listed as cytosolic Clytin K168D

T2 sequence (P35367 whole entry): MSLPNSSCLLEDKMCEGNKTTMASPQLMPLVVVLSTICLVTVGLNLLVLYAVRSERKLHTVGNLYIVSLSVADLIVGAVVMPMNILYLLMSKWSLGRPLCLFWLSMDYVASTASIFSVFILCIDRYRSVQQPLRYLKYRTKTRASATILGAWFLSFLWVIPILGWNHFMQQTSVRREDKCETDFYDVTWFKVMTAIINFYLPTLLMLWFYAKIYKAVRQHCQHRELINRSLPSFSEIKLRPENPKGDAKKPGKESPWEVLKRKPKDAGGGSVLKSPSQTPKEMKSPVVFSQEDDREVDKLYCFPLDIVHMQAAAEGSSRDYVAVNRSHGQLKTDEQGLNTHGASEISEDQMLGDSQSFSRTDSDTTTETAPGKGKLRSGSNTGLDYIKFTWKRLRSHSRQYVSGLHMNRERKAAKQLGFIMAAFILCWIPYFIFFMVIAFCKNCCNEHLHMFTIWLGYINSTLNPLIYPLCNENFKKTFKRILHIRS
T3 sequence (O75762 whole entry): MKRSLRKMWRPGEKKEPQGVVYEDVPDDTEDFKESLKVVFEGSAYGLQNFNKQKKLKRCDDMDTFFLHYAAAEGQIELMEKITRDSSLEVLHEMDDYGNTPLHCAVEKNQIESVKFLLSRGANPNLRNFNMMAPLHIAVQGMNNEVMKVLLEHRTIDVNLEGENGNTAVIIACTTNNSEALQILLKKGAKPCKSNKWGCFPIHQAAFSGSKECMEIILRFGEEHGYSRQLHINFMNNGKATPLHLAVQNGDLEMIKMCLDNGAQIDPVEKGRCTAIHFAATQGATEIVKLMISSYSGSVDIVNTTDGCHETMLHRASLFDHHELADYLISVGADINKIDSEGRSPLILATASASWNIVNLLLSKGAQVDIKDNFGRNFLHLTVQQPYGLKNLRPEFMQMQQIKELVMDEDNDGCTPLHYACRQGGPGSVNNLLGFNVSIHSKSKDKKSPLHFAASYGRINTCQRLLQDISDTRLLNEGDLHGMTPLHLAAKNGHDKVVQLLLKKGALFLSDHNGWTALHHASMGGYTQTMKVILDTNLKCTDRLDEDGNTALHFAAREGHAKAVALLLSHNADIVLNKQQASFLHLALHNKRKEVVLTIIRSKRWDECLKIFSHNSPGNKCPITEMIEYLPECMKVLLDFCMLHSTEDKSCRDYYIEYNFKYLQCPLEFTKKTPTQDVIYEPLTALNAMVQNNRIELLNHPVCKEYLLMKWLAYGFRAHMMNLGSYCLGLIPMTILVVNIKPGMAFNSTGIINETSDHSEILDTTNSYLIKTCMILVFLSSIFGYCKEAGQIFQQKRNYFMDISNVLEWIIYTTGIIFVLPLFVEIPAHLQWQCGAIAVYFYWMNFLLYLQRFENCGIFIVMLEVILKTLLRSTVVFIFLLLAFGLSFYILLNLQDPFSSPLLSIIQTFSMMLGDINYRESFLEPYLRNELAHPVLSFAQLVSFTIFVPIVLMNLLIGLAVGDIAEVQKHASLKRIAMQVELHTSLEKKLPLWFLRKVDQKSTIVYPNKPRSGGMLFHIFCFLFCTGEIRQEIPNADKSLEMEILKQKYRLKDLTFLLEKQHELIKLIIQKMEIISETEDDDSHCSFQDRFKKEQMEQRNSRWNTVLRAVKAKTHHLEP

Row | Molecule | EC50 [1] [nM] | signal intensities, GIP dose response (FIG. 5) [2] | Max signal with GIP (RLU × 10^−5) [2] [RLU × 10^−5] | Max signal with GIP (RLU × 10^−5) ([2]; listed as mt-Clytin K168D) | EC50 [2] [nM] | EC50 for GIP (nM) [2] | % GPCR/total [2] [%] | % GPCR/total ([2]; listed as mt-Clytin K168D) | Signal: background with GIP [2] | Signal: background with GIP ([2]; listed as mt-Clytin K168D) | EC50 [3] [nM] | GPCR-mediated signal as % of the total signal [4] | Max signal with GIP (RLU × 10^−5) [2, 7] | % GPCR/total [2, 7] | Signal: background with GIP [2, 7] | luminescence induced by histamine [5] | EC50 (AITC dose response) [6] | signal (AITC-induced bioluminescence) [6]
1 | B1 | 129 | significantly higher signal intensities than any of the wild-type photoproteins | 7.90 | maximal signal | 9.1 | lowest EC50 | 34.4 | highest % GPCR/total | 188.2 | highest signal to background ratio | 160 | ~100% | – | – | – | – | – | –
2 | B2 | 269 | – | 4.68 | – | 11.3 | – | 23.9 | – | 84.7 | – | 235 | about 70% | – | – | – | – | – | –
3 | B3 | 1350 | – | 3.14 | – | 12.9 | – | 6.8 | – | 146.5 | – | 545 | about 30% | – | – | – | – | – | –
4 | B4 | 173 | – | 6.07 | – | 21.6 | – | 19.8 | – | 120.8 | – | 176 | – | – | – | – | – | – | –
5 | B5 | – | significantly higher signal intensities than any of the wild-type photoproteins | 8.76 | – | 4.01 | lowest EC50 | 55.6 | – | 74.3 | – | 160 | ~100% | highest maximal signal | highest % GPCR/total | highest signal to background ratio | much higher luminescence than the other forms of Clytin and Aequorin | lower EC50 than cytosolic wild-type Clytin | higher signal than cytosolic and mitochondrial Aequorin
